Measurements taken from publication PMC9772228, “Structure of a RecT/Redβ family recombinase in complex with a duplex intermediate of DNA annealing”.
Positions count from the first letter of the chain named.

Tests used:
Assay in all cases: EMSA; little to no detectable; EMSA: PBS pH 7.4 (or KH2PO4/10 mM MgCl2 pH 6.0), 3.6 or 5 uM protein, 25 uM nt DNA, 37 C 15 min per strand, 0.8% agarose 1x TBE; cryo-EM: 20 mM KH2PO4 (Results: 10 mM), 10 mM MgCl2 pH 6.0, 37 C; native MS: 100 mM ammonium acetate pH 7, 37 C
Settings in all cases: protein: recombinant, tags: N-terminal 6His vector tag (20 aa) retained, chain copies: 10
LiRecT K111A/K215A = molecular target: T1, LiRecT K111A/K215A (Listeria innocua CLIP 11262, UniProt Q92FL9 1-271, K111A;K215A)
T1 sequence: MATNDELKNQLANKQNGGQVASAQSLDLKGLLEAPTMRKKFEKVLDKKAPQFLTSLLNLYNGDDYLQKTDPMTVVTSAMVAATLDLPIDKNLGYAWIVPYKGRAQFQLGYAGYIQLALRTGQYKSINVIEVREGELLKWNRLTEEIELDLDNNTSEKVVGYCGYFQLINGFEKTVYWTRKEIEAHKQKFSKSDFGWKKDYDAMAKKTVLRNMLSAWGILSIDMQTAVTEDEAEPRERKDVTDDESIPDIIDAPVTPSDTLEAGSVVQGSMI

LiRecT R210A/K215A = molecular target: T2, LiRecT R210A/K215A (Listeria innocua CLIP 11262, UniProt Q92FL9 1-271, R210A;K215A)
T2 sequence: T1 sequence with A111K, R210A

LiRecT K206E = molecular target: T3, LiRecT K206E (Listeria innocua CLIP 11262, UniProt Q92FL9 1-271, K206E)
T3 sequence: T1 sequence with A111K, K206E, A215K

LiRecT K206A/R210A = molecular target: T4, LiRecT K206A/R210A (Listeria innocua CLIP 11262, UniProt Q92FL9 1-271, K206A;R210A)
T4 sequence: T1 sequence with A111K, K206A, R210A, A215K

LiRecT K206A/K215A = molecular target: T5, LiRecT K206A/K215A (Listeria innocua CLIP 11262, UniProt Q92FL9 1-271, K206A;K215A)
T5 sequence: T1 sequence with A111K, K206A

[1] = label: 5'-Cy3;5'-Cy5, 49 bp, 1 nt 5' overhang at each end

Measured: binding result

GCGGATGGCTTAGAGCAGAATCGCCCTGCATAGCTCGATTTTTGCGGATG (ssDNA) [Cy3-50mer]
no binding: LiRecT K111A/K215A; label: 5'-Cy3, single strand | LiRecT R210A/K215A; label: 5'-Cy3, single strand | LiRecT K206E; label: 5'-Cy3, single strand | LiRecT K206A/R210A; label: 5'-Cy3, single strand | LiRecT K206A/K215A; label: 5'-Cy3, single strand

CCATCCGCAAAAATCGAGCTATGCAGGGCGATTCTGCTCTAAGCCATCCG (ssDNA) [Cy5-50mer]
no binding: LiRecT K111A/K215A; label: 5'-Cy5, single strand | LiRecT R210A/K215A; label: 5'-Cy5, single strand | LiRecT K206E; label: 5'-Cy5, single strand | LiRecT K206A/R210A; label: 5'-Cy5, single strand | LiRecT K206A/K215A; label: 5'-Cy5, single strand

B1: 50-mer duplex intermediate (sequential addition) (dsDNA)
DNA 1: GCGGATGGCTTAGAGCAGAATCGCCCTGCATAGCTCGATTTTTGCGGATG
DNA 2: CCATCCGCAAAAATCGAGCTATGCAGGGCGATTCTGCTCTAAGCCATCCG
no binding: LiRecT K111A/K215A; [1] | LiRecT R210A/K215A; [1] | LiRecT K206E; [1] | LiRecT K206A/R210A; [1] | LiRecT K206A/K215A; [1]
